From the supplement of paper PMC12042874
± gives the uncertainty stated by the source.

Assay: amyloid nucleation score (Sup35N fusion, yeast selection) (log enrichment); library NNK1; higher = more nucleation; inactive = no reads after selection
In short: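 Sup35N was fused to peptides of 20 random codons and expressed in psi-negative yeast, which were induced with 100 μM copper sulfate for 24 hours and then grown on medium lacking adenine and uracil for 7 days at 30°C. Plasmid inserts from input and output were sequenced on Illumina. The nucleation score is the DiMSum log enrichment of output over input reads, centred on the mode score of non-aggregating sequences. Sequences with under 100 input reads were left out, and random libraries had three technical output replicates.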

| Substance | amyloid nucleation score |
| --- | --- |
| WRYRSRCMGGVVDRLLCDVW | 3.33 ± 0.076 |
| LNGNLVTMEGVLINNSFRVT | 0.394 ± 0.24 |
| GCVLFDLSHL | -1.92 ± 2.4 |
| QGSYLHLSIKWLAFRSMS | 0.19 ± 0.4 |
| CGCCARWNYIIMMGWGGCVL | 0.096 ± 0.69 |
| ECFSKFLNLRGSPLG | -0.098 ± 0.53 |
| VRSNRMTAGTGYWGNSTVKD | -0.65 ± 0.56 |
| CICLDTSGSVLYSLCTDCGL | 0.871 ± 0.69 |
| IHYIPAFYRAKSILLFVYAC | -0.241 ± 0.5 |
| HFCMGWVYLPELMYRFYMCF | -0.494 ± 0.35 |
| TDAPP | 0.126 ± 1.1 |
| TYSVTFF | 0.231 ± 0.4 |
| HDFYEDIVMEYVL | 1.55 ± 0.51 |
| VSTYRRDIMLHVITIENKLT | 2.29 ± 0.6 |
| GVTYKPYGVSNW | -0.616 ± 0.69 |
| CCRVISIWG | 0.115 ± 0.54 |
| NMLAQSRSSVIAPLRRVWPV | 0.889 ± 0.77 |
| MAPLTMTSDLSHISKTGIWG | 1.38 ± 0.9 |
| VKFIGYFLRNTSSSSCTSDP | 0.097 ± 0.58 |
| VKVCHSPKTSYDTVISRGNL | 0.459 ± 0.44 |
| VGSHVRREFCELVYRS | -0.303 ± 0.44 |
| EHSFRNRCEAANWLVWLRVI | -0.061 ± 0.51 |

| Substance | amyloid nucleation score |
| --- | --- |
| TASFY | -0.41 ± 1.6 |
| YCSSVEVGVYLNVLICFSGL | 3.18 ± 0.062 |
| LHRALGQSSWWARQW | -0.13 ± 1 |
| YSWLVWGTSPV | 0.445 ± 0.38 |
| CIVVTLYSIMFRDGS | inactive |
| VELLGQYVICPSTRCRIVEN | 0.254 ± 0.47 |
| ISNMETGHLEYSLRLAPKYC | -0.658 ± 0.82 |
| GTHLYS | 0.78 ± 0.38 |
| MDTSL | -0.235 ± 0.82 |
| VSFNTFYRRSFPFQLRTTSV | 0.329 ± 0.29 |
| SGGNLFRVMRWSMHFVSVRL | -0.355 ± 0.33 |
| AWIPFVNTKTEWRVMDVNFD | 0.399 ± 0.62 |
| NFSESFLTVNPQTTDVLKLH | -1.18 ± 1.5 |
| AGLVYEIKWYYADL | -0.482 ± 0.33 |
| AFTPSWRTRLQMTTL | -0.386 ± 0.57 |
| TEFSNAPPHTSAMVAYVLSY | -1.52 ± 1.7 |
| LDIVWVDSVIVISLMMLTYC | 0.199 ± 0.39 |
| VLDQHPRDFESRGMVMANFY | 1.55 ± 0.24 |
| TSTPNVWRKR | inactive |
| WIEEIVCIGS | 1.03 ± 0.68 |
| LDLNRFDPWVVTSLLCFPVA | -1.42 ± 1.5 |
| TRNMHKCCNTMTTLLSVLGS | -0.186 ± 0.75 |

| Substance | amyloid nucleation score |
| --- | --- |
| TRAHGALYREEVKTWGSRLK | -0.998 ± 0.8 |
| VDLNWRHVDCCYFRFTTQDH | 6.04 ± 0.074 |
| YIYEDFGG | -0.407 ± 0.57 |
| LHMLKMICKVVNRVSYS | -0.098 ± 0.23 |
| CHQFV | 0.833 ± 0.5 |
| STRDQSDVMDRLTGEHHQQW | 0.363 ± 0.41 |
| HIMYSLKASSHWSPIVFSHH | 0.669 ± 0.59 |
| LMTLLSSLSPAQSSLPT | 1.27 ± 0.8 |
| RLFYTRSDSGGVRLVVLAVG | 0.003 ± 1.2 |
| YWARRYLWAGFFI | -0.322 ± 1.1 |
| CPTEGGLVWSYWSLS | 1.09 ± 0.83 |
| WVTHRL | -0.715 ± 1.2 |
| CIRVSIVID | 0.215 ± 0.38 |
| YENSFGGHYSDESNTRRWEF | 1.44 ± 0.36 |
| VLCRINGVRS | 1.1 ± 0.97 |
| LFMNCLILRMFTCAFHNSSE | 6.39 ± 0.078 |
| MFFLQCQMRLSLLVGNVLMR | -0.054 ± 0.56 |
| IVRDFMVLINR | -0.911 ± 1.3 |
| VHWIWGF | 0.228 ± 0.5 |
| HKTSKMLCLSI | 0.241 ± 0.9 |
| AYPWRITFDAWISYV | 0.294 ± 0.76 |
| ITMVISLCALFMSRSIIFKG | -0.154 ± 1 |

| Substance | amyloid nucleation score |
| --- | --- |
| SYCLLIDLLLHSHVGLYSPM | 0.519 ± 0.33 |
| CYSQDRSRLVSEDYY | -0.525 ± 0.34 |
| CIIVVSTRAADPDLCSYIML | 0.234 ± 0.75 |
| FNLWIP | 2.13 ± 0.17 |
| MRCSDFELMWFQIDDKYVDN | -0.201 ± 0.17 |
| ISRGDVGVKESSGCNCVLPH | -0.587 ± 1.3 |
| SAPFMNGLCTLSRVREISAH | 0.222 ± 0.59 |
| YDNIWYKVNRAYEIRWLVGG | -0.383 ± 1.7 |
| NSMSNF | -1.08 ± 2.4 |
| VWRTQMFRV | 0.37 ± 1.1 |
| ALLCFLWCRMYGTFSTSCVL | 0.315 ± 0.85 |
| KLIYLMGPIPWVLRSCWQVF | 0.208 ± 0.37 |
| QGRLYSH | 0.438 ± 0.39 |
| DYTLMRSLESPITDLQSSSG | 0.748 ± 0.88 |
| FGCTKANT | -0.657 ± 1.1 |
| SLLNRVGLWRRSSLCLMTGC | 0.538 ± 0.26 |
| LCRVVGYRSPHWQVRGLSVV | -0.215 ± 1.7 |
| VGHKNSYGRFKDIWIWLWYQ | -0.009 ± 1.4 |
| YIPICIRSYIKNAS | 0.413 ± 1.2 |
| LMDAEFIMVFTL | 0.918 ± 0.2 |
| GKVFVVSVKCNEVVDFGWCQ | 0.073 ± 0.28 |
